Test results published in paper PMC3265611.

Biological target: T1, Flag-yTdp1 H432N (Saccharomyces cerevisiae, UniProt P38319 1-544, H432N)
T1 sequence: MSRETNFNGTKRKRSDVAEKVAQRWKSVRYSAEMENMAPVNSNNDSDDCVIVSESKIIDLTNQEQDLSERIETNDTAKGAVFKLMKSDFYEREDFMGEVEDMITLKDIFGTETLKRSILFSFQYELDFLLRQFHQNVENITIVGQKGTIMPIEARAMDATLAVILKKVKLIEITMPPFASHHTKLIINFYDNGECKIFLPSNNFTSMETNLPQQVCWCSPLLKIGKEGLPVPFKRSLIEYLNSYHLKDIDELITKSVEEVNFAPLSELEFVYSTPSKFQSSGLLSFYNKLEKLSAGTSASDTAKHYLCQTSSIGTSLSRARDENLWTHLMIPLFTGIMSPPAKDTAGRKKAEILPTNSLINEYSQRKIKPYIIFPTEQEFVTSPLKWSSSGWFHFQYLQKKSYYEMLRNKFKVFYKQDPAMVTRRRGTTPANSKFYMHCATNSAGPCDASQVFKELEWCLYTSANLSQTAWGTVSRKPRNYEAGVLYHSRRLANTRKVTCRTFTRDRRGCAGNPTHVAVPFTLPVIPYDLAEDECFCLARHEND
Assay: EMSA

Binder: GATCTAAAAGACTT (ssDNA, 3' phosphotyrosine) [3'-pY 14-mer substrate]
- binding result: no binding
